In patent US20040005550A1, “Methods and compositions useful for targeting activated vitronectin receptor alphavbeta3” (The Scripps Research Institute, priority 1998, published 2004):

Experiments:
[1] = molecular target: human αvβ3 integrin on cells (human) (UniProt P06756); assay: unstimulated B-lymphoblastoid cells; summary in the description, differs from the 2,600 nM of Example 8
[2] = molecular target: human αvβ3 integrin on cells (human) (UniProt P06756); assay: flow cytometry binding isotherms, JY cells
[3] = molecular target: human αvβ3 integrin on cells (human) (UniProt P06756); assay: flow cytometry, JY cells, 100 nM phorbol myristate acetate for 15 min
[4] = molecular target: human αvβ3 integrin on cells (human) (UniProt P06756); assay: flow cytometry binding isotherm, αvβ3-CHO cells, no treatment
[5] = molecular target: purified αvβ3 receptors from human placenta (human) (UniProt P06756); assay: ELISA on purified integrin, 50 µM MnCl2; half-maximal binding
[6] = molecular target: human αvβ3 integrin on cells (human) (UniProt P06756); assay: flow cytometry binding isotherm, αvβ3-CHO cells, activating antibody AP5
[7] = molecular target: human αvβ3 integrin on cells (human) (UniProt P06756); assay: flow cytometry binding isotherm, unstimulated JY cells, one-site fit
[8] = molecular target: human αvβ3 integrin on cells (human) (UniProt P06756); assay: flow cytometry binding isotherm, JY cells stimulated with phorbol myristate acetate, one-site fit
[9] = molecular target: purified αIIbβ3 from human platelets (human) (UniProt P08514); assay: ELISA on purified integrin, 50 µM MnCl2; half-maximal binding
[10] = molecular target: human αvβ3 integrin on cells (human) (UniProt P06756); assay: flow cytometry, AP5-treated αvβ3-CHO cells; 1 µM Integrilin against WOW-1 Fab
[11] = molecular target: human αvβ3 integrin on cells (human) (UniProt P06756); assay: flow cytometry, AP5-treated αvβ3-CHO cells; 1 µM Integrilin against aPB

Chain of human αvβ3 integrin on cells (human) (P06756 31-1048, chain 1 of 2): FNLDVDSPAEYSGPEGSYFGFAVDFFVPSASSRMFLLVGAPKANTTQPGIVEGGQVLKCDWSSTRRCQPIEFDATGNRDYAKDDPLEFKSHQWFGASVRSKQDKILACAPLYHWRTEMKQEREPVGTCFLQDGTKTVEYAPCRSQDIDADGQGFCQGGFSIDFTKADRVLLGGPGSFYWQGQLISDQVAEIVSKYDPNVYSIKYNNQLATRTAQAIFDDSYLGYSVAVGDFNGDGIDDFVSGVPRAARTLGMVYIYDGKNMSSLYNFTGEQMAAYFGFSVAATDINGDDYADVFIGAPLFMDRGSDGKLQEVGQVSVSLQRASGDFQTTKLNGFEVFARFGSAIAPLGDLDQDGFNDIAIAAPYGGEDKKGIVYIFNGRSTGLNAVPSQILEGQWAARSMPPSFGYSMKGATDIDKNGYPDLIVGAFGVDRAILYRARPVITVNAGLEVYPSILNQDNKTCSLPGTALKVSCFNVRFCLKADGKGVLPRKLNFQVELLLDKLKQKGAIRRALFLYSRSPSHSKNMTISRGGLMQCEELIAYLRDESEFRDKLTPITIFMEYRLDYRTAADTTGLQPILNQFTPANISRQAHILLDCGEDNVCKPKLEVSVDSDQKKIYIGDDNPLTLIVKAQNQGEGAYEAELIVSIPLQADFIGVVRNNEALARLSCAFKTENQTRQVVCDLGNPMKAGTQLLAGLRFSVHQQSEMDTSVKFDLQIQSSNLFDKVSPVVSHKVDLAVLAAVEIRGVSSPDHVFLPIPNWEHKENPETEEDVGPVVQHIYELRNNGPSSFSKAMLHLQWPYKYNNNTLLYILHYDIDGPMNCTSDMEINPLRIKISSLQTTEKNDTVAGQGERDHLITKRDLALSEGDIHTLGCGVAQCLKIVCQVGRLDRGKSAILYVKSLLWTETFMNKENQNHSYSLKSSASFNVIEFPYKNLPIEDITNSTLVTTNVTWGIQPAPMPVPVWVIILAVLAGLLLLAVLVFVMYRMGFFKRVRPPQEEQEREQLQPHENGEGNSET
Chain of human αvβ3 integrin on cells (human) (P05106 27-788, chain 2 of 2, further chain): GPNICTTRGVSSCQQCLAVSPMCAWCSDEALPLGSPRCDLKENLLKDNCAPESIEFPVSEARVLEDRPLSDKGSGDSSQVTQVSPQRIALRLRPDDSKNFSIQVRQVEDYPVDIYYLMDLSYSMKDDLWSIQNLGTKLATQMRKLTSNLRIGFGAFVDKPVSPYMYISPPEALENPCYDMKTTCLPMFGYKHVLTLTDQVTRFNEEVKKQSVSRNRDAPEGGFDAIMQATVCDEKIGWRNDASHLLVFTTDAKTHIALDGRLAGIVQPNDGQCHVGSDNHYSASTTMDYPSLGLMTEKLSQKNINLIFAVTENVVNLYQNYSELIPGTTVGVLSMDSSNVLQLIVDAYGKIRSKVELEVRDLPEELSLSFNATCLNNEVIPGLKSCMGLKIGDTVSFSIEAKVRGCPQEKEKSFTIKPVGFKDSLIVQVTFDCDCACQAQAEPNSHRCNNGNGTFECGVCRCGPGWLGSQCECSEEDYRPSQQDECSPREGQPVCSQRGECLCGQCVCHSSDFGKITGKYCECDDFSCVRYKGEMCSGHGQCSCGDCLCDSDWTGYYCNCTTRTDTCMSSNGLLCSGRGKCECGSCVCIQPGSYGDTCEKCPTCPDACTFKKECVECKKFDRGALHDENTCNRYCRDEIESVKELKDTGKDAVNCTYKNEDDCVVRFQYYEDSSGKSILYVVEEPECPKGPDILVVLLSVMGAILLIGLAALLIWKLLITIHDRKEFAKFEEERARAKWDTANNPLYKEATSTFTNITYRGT
Chain of purified αvβ3 receptors from human placenta (human) (P06756 31-1048 limits assumed, chain 1 of 2): as the sequence (P06756 31-1048, chain 1 of 2) above
Chain of purified αvβ3 receptors from human placenta (human) (P05106 27-788 limits assumed, chain 2 of 2, further chain): as the sequence (P05106 27-788, chain 2 of 2, further chain) above

WOW-1 Fab was tested, and the Kd [1] was 2400 nM, the fold increase in binding affinity with phorbol myristate acetate against unstimulated cells [2] was > 30 fold and the fold increase in specific binding with phorbol myristate acetate against no agonist [3] was 2.4 fold. It also gave a Bmax [4] of 62 units, a Kd [4] of 514 nM and an EC50 [5] of 40 nM. It also gave a Bmax [6] of 65 units, a Kd [6] of 119 nM and a Kd [7] of 2600 nM. It also gave a maximal binding (arbitrary fluorescence units) [7] of 24.8, a Kd [8] of 80 nM and a maximal binding [8] of 23.5 units.
In the case of PAC1 Fab, the EC50 [9] is reported as 50 nM.
With Integrilin (peptide) the percent inhibition of WOW-1 Fab binding [10] was < 20% and the percent inhibition of aPB binding [11] was < 20%.
